Data on two molecules can be found in article doi:10.1101/2024.10.01.616120 (bioRxiv, 2024).

This experiment has as its target valosin-containing protein (VCP)/p97 (UniProt P55072 1-806, labeled with Terbium (CoraFluor), DOL 0.33, in the TR-FRET assays). The experiment can be described thus: FRET or BRET. Background: In BRET a luciferase serves as donor, and the signal depends on an acceptor being close.

Chain of valosin-containing protein (VCP)/p97 (P55072 whole entry): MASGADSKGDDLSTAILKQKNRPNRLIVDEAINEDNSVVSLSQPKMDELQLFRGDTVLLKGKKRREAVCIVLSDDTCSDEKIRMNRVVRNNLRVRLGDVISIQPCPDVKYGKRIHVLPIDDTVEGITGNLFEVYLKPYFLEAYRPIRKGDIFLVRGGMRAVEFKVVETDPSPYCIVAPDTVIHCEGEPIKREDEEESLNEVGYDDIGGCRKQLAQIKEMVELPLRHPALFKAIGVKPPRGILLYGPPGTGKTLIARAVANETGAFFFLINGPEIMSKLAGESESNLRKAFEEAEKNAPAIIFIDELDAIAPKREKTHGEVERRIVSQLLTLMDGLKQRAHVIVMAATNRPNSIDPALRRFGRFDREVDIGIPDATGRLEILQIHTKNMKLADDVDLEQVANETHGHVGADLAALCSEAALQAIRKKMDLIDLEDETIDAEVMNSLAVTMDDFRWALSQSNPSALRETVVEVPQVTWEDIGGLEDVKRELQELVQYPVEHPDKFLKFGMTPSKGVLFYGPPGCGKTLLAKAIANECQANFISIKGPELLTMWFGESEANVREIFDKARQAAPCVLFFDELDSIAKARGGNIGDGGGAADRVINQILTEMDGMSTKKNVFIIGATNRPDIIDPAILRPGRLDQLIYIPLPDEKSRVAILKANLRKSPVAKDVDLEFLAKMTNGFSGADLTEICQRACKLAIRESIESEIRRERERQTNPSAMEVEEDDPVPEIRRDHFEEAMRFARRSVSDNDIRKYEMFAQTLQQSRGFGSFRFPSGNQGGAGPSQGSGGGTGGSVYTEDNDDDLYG

B1: p47 (natural protein)
chain: MAAERQEALREFVAVTGAEEDRARFFLESAGWDLQIALASFYEDGGDEDIVTISQATPSSVSRGTAPSDNRVTSFRDLIHDQDEDEEEEEGQRFYAGGSERSGQQIVGPPRKKSPNELVDDLFKGAKEHGAVAVERVTKSPGETSKPRPFAGGGYRLGAAPEEESAYVAGEKRQHSSQDVHVVLKLWKSGFSLDNGELRSYQDPSNAQFLESIRRGEVPAELRRLAHGGQVNLDMEDHRDEDFVKPKGAFKAFTGEGQKLGSTAPQVLSTSSPAQQAENEAKASSSILIDESEPTTNIQIRLADGGRLVQKFNHSHRISDIRLFIVDARPAMAATSFILMTTFPNKELADESQTLKEANLLNAVIVQRLT
The term IC50 denotes the midpoint of a concentration-inhibition curve. Higher therefore signals weaker potency in that assay. As to B1, the IC50 was 20.4 ± 2.8 nM.

B2: valosin contain protein p97/p47 interacting protein 1 (VCPIP1), wild type (enzyme)
chain: MSQPPPPPPPLPPPPPPPEAPQTPSSLASAAASGGLLKRRDRRILSGSCPDPKCQARLFFPASGSVSIECTECGQRHEQQQLLGVEEVTDPDVVLHNLLRNALLGVTGAPKKNTELVKVMGLSNYHCKLLSPILARYGMDKQTGRAKLLRDMNQGELFDCALLGDRAFLIEPEHVNTVGYGKDRSGSLLYLHDTLEDIKRANKSQECLIPVHVDGDGHCLVHAVSRALVGRELFWHALRENLKQHFQQHLARYQALFHDFIDAAEWEDIINECDPLFVPPEGVPLGLRNIHIFGLANVLHRPIILLDSLSGMRSSGDYSATFLPGLIPAEKCTGKDGHLNKPICIAWSSSGRNHYIPLVGIKGAALPKLPMNLLPKAWGVPQDLIKKYIKLEEDGGCVIGGDRSLQDKYLLRLVAAMEEVFMDKHGIHPSLVADVHQYFYRRTGVIGVQPEEVTAAAKKAVMDNRLHKCLLCGALSELHVPPEWLAPGGKLYNLAKSTHGQLRTDKNYSFPLNNLVCSYDSVKDVLVPDYGMSNLTACNWCHGTSVRKVRGDGSIVYLDGDRTNSRSTGGKCGCGFKHFWDGKEYDNLPEAFPITLEWGGRVVRETVYWFQYESDSSLNSNVYDVAMKLVTKHFPGEFGSEILVQKVVHTILHQTAKKNPDDYTPVNIDGAHAQRVGDVQGQESESQLPTKIILTGQKTKTLHKEELNMSKTERTIQQNITEQASVMQKRKTEKLKQEQKGQPRTVSPSTIRDGPSSAPATPTKAPYSPTTSKEKKIRITTNDGRQSMVTLKSSTTFFELQESIAREFNIPPYLQCIRYGFPPKELMPPQAGMEKEPVPLQHGDRITIEILKSKAEGGQSAAAHSAHTVKQEDIAVTGKLSSKELQEQAEKEMYSLCLLATLMGEDVWSYAKGLPHMFQQGGVFYSIMKKTMGMADGKHCTFPHLPGKTFVYNASEDRLELCVDAAGHFPIGPDVEDLVKEAVSQVRAEATTRSRESSPSHGLLKLGSGGVVKKKSEQLHNVTAFQGKGHSLGTASGNPHLDPRARETSVVRKHNTGTDFSNSSTKTEPSVFTASSSNSELIRIAPGVVTMRDGRQLDPDLVEAQRKKLQEMVSSIQASMDRHLRDQSTEQSPSDLPQRKTEVVSSSAKSGSLQTGLPESFPLTGGTENLNTETTDGCVADALGAAFATRSKAQRGNSVEELEEMDSQDAEMTNTTEPMDHS
modifications: labeled with BODIPY, DOL 0.23, as the labelled partner in the TR-FRET assays; unlabeled as competitor
As to B2, the IC50 was 74.5 ± 13.9 nM.
